The target of this series is T1, His6-PhoP (Actinosynnema pretiosum X47 (derived from A. pretiosum subsp. auranticum ATCC 31565)) (UniProt A0A290ZEW1).
T1 sequence: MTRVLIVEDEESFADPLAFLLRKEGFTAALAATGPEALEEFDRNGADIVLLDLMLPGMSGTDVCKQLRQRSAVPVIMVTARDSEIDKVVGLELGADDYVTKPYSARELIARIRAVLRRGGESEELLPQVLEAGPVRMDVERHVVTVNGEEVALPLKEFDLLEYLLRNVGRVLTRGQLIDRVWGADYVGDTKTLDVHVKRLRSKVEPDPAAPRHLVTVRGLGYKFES
Description: EMSA. Particulars: EMSA: 100 fmol biotin probe, binding buffer (composition not given), poly(dI-dC), 20-30 min at room temperature, 8% native PAGE; protein dialyzed in 50 mM …. In general terms: A gel shift assay detects complexes by their altered migration in electrophoresis.

In PMC9019756 one finds binding data, which are given here for three sequences.

For “GTGACTGGAGTTCCTTACCCCGATCCGGTGACCGGGGCCGGCGGCCCAGCCCCGGTCCCGCGATCCGCGAAAGCAGCCGCGAACCGCCGCTGACCTGGTCGAACGGCCCGCTGGAAGATCGCTTGAGCACCGCCGACGACGAGCGTCGACGCCCCCGCCCCGCAGCGGGCGGGGGCAGTCCCCCGTTGGAGTGCTCAGCTCCCCCCGGCGACGGCCGTACTAGGCGGCGGTCGTGTAGGGAAAGA (double strand) [fliM promoter probe]”, the binding entry was “no binding”.
As for “GTGACTGGAGTTCCTTTTCGCGCAACAGCCGGTACCGGGTTCAGGTTAAACCGAGCAAGATAGCCCTAGAGGGGACACCAGCGGATACAGAGAGCAACAAAACAGGCACGTACAGAAGTCTTGTTAGCCCAGAAGGGTGATAAACGCCCCGATGTCGAGCGTTCCTCGCCACAGACACGTCACATCTGGCGAACTCGGTCGTTTGCTAGGCCGGGAAGGGAGAAGAGGGTAACGACGAGTCGTGTAGGGAAAGA (double strand) [ssgB promoter probe]”, the entry is “binds”; as for “TCTTTCCCTACACGACCGGCTTCCGTCCTTGGATGTCGGGCATCGGGCCCGTCCGTGGGTCCGTGGCGTTACAAACGGCAGTGCGCCTTCACTCCTGAGGGGGAACGAAGGGCGGCCAGGGTGGAGAAGGCCCGGCCGCCCGTCACCCGTAAGGAACTCCAGTCAC (double strand) [swrD promoter probe]”, “no binding”.
